From paper PMC5016661 (The Journal of Biological Chemistry, 2016)

Target: the molecule itself
Test: cryo-EM structure; FraC (5 uM) incubated with DOPC LUVs at a protein/lipid ratio of 1:160 for 30 min; vitrified; 1,562 particles; oligomer bound to the vesicles (non-lytic, prepore)

B1: fragaceatoxin C (natural protein)
chain: ADVAGAVIDGAGLGFDVLKTVLEALGNVKRKIAVGIDNESGKTWTAMNTYFRSGTSDIVLPHKVAHGKALLYNGQKNRGPVATGVVGVIAYSMSDGNTLAVLFSVPYDYNWYSNWWNVRVYKGQKRADQRMYEELYYHRSPFRGDNGWHSRGLGYGLKSRGFMNSSGHAILEIHVTKA
notes: also called FraC; WT FraC; source: E. coli BL21 (DE3), purified (ion-exchange and size-exclusion chromatography)
stoichiometry N: 8
